Target: T1, IvoA(C^0) mutant (H1428A)
T1 chain: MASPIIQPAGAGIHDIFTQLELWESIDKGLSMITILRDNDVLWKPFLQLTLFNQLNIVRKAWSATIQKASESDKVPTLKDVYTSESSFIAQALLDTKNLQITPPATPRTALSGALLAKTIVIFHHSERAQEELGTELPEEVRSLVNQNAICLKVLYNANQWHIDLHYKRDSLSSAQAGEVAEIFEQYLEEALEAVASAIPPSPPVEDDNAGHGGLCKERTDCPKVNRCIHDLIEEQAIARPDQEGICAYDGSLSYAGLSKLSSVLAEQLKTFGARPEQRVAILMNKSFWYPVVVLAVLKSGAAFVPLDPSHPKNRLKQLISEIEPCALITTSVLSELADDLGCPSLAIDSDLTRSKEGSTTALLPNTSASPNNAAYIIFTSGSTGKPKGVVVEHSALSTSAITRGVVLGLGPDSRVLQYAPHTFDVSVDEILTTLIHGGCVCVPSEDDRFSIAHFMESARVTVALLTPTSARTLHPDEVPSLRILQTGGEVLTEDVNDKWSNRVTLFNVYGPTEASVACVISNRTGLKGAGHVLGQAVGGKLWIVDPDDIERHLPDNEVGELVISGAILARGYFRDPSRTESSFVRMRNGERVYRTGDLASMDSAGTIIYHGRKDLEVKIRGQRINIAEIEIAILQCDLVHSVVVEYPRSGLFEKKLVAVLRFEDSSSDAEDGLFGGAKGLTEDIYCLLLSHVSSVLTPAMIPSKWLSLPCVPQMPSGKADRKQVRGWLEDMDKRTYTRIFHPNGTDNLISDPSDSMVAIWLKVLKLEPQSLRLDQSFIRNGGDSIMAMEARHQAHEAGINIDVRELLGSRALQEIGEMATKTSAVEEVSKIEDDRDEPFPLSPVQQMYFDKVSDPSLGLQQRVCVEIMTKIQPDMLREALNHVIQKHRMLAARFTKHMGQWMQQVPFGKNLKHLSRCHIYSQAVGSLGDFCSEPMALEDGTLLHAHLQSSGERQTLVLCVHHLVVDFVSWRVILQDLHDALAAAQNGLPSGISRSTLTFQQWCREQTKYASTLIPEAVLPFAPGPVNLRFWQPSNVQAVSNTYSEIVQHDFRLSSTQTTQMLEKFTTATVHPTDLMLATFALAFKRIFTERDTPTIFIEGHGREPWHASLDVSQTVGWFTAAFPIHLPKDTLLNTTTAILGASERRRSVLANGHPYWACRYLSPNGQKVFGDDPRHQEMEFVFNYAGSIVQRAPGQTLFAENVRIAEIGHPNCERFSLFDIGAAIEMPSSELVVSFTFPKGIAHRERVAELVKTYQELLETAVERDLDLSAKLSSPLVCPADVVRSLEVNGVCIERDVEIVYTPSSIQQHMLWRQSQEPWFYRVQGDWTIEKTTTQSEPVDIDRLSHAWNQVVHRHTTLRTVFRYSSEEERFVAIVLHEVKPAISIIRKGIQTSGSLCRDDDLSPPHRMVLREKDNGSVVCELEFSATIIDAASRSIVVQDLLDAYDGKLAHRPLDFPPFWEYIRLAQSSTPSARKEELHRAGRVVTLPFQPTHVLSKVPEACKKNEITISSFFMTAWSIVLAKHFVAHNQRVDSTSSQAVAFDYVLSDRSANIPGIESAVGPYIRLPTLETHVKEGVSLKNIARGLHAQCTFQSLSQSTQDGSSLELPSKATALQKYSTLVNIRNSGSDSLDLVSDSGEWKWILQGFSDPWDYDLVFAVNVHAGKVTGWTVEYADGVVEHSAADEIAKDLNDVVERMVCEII

B1: standalone IvoA-C (condensation (C) domain of Aspergillus nidulans single-module NRPS IvoA) (protein)
chain: DLDLSAKLSSPLVCPADVVRSLEVNGVCIERDVEIVYTPSSIQQHMLWRQSQEPWFYRVQGDWTIEKTTTQSEPVDIDRLSHAWNQVVHRHTTLRTVFRYSSEEERFVAIVLHEVKPAISIIRKGIQTSGSLCRDDDLSPPHRMVLREKDNGSVVCELEFSHTIIDAASRSIVVQDLLDAYDGKLAHRPLDFPPFWEYIRLAQSSTPSARKEELHRAGRVVTLPFQPTHVLSKVPEACKKNEITISSFFMTAWSIVLAKHFVAHNQRVDSTSSQAVAFDYVLSDRSANIPGIESAVGPYIRLPTLETHVKEGVSLKNIARGLHAQCTFQSLSQSTQDGSSLELPSKATALQKYSTLVNIRNSGSDSLDLVSDSGEWKWILQGFSDPWDYDLVFAVNVHAGKVTGWTVEYADGVVEHSAADEIAKDLNDVVERMVCEII
stereoinversion activity (complementation in trans): Addition of IvoA-C in equimolar to either IvoA(C^0) mutant or IvoA-ΔC truncation mutant successfully rescued the impaired stereoinversion activity

From patent publication US20220315967A1, “METHODS FOR PRODUCING D-TRYPTOPHAN AND SUBSTITUTED D-TRYPTOPHANS” (priority 2019, published 2022)
